In PMC2884070 (Journal of hepatology, 2010) one finds Kd data, which are given here for four molecules.

The chains are these.
B1: full-length NS5A Con1-His (genotype 1b) (natural protein)
chain: SGSWLRDVWDWICTVLTDFKTWLQSKLLPRLPGVPFFSCQRGYKGVWRGDGIMQTTCPCGAQITGHVKNGSMRIVGPRTCSNTWHGTFPINAYTTGPCTPSPAPNYSRALWRVAAEEYVEVTRVGDFHYVTGMTTDNVKCPCQVPAPEFFTEVDGVRLHRYAPACKPLLREEVTFLVGLNQYLVGSQLPCEPEPDVAVLTSMLTDPSHITAETAKRRLARGSPPSLASSSASQLSAPSLKATCTTRHDSPDADLIEANLLWRQEMGGNITRVESENKVVILDSFEPLQAEEDEREVSVPAEILRRSRKFPRAMPIWARPDYNPPLLESWKDPDYVPPVVHGCPLPPAKAPPIPPPRRKRTVVLSESTVSSALAELATKTFGSSESSAVDSGTATASPDQPSDDGDAGSDVESYSSMPPLEGEPGDPDLSDGSWSTVSEEASEDVVCC
B2: domain 2 of JFH-1 NS5A (domain or fragment)
chain: NTYDVDMVDANLLMEGGVAQTEPESRVPVLDFLEPMAEEESDLEPSIPSECMLPRSGFPRALPAWARPDYNPPLVESWRRPDYQPPTVAGCALP
B3: full-length NS5A JFH-1-His (genotype 2a) (natural protein)
chain: SGSWLRDVWDWVCTILTDFKNWLTSKLFPKLPGLPFISCQKGYKGVWAGTGIMTTRCPCGANISGNVRLGSMRITGPKTCMNTWQGTFPINCYTEGQCAPKPPTNYKTAIWRVAASEYAEVTQHGSYSYVTGLTTDNLKIPCQLPSPEFFSWVDGVQIHRFAPTPKPFFRDEVSFCVGLNSYAVGSQLPCEPEPDADVLRSMLTDPPHITAETAARRLARGSPPSEASSSVSQLSAPSLRATCTTHSNTYDVDMVDANLLMEGGVAQTEPESRVPVLDFLEPMAEEESDLEPSIPSECMLPRSGFPRALPAWARPDYNPPLVESWRRPDYQPPTVAGCALPPPKKAPTPPPRRRRTVGLSESTISEALQQLAIKTFGQPPSSGDAGSSTGAGAAESGGPTSPGEPAPSETGSASSMPPLEGEPGDPDLESDQVELQPPPQGGGVAPGSGSGSWSTCSEEDDTTVCC
B4: full-length NS5A H77-His (genotype 1a) (natural protein)
chain: SGSWLRDIWDWICEVLSDFKTWLKAKLMPQLPGIPFVSCQRGYRGVWRGDGIMHTRCHCGAEITGHVKNGTMRIVGPRTCKNMWSGTFFINAYTTGPCTPLPAPNYKFALWRVSAEEYVEIRRVGDFHYVSGMTTDNLKCPCQIPSPEFFTELDGVRLHRFAPPCKPLLREEVSFRVGLHEYPVGSQLPCEPEPDVAVLTSMLTDPSHITAEAAGRRLARGSPPSMASSSASQLSAPSLKATCTANHDSPDAELIEANLLWRQEMGGNITRVESENKVVILDSFDPLVAEEDEREVSVPAEILRKSRRFAPALPVWARPDYNPLLVETWKKPDYEPPVVHGCPLPPPRSPPVPPPRKKRTVVLTESTLPTALAELATKSFGSSSTSGITGDNTTTSSEPAPSGCPPDSDVESYSSMPPLEGEPGDPDLSDGSWSTVSSGADTEDVVCC

In this experiment the target is GST-CypA (cyclophilin A) (human, UniProt P62937 1-165). Description: radioligand binding.
Turning to B1, the affinity, expressed as Kd, was 126 µM.
The value for B2 was 69 µM; that for B3 was 108 µM; that for B4 was 131 µM.

Usually Kd stands for the concentration at which binding is half-saturated. The low end stands for higher affinity, the high end for lower affinity.
